Read-outs that look alike come from different tables or passages of the source.
Legend:
CD4+ T cells = conditions: healthy, CMV-exposed human subjects; partially or fully identical sequences; cited from earlier work
[1] = tested on: HLA-DRB1*0401-transgenic mice splenocytes; assay type: in vivo, mouse; parameters: key to DRB1*0401 mice total SC (T cell response) / DRB1*0401 mice CD4+ (T cell response): −: no binding/T cell response; +/−: weak binding/T cell response; +: intermediate binding/T cell response; ++: strong binding/T cell response
[2] = target: T1, soluble DRB1*0401 molecules (DR4) (Homo sapiens, UniProt P01903+P01911, A100K/A169T/F76Y/I96L/K127E/L162R/M171V/N62H/P40V/Q125Y/R42H/S133A/S149N/S66Y/V115G/V209L/W38E); assay type: binding; parameters: key: −: no binding; +/−: weak binding; +: intermediate binding; ++: strong binding; conditions: individual pp65 15mer, SDS-stability assay
T1 construct: Soluble HLA class I A*0201 and HLA class II DRA1*0101/DRB1*0101/Ii, DRA1*0101/DRB1*0401/Ii and DRA1*0101/DRB1*0404/Ii molecules were expressed in SC-2 cells; made in house; host or cells: SC-2 cells

DRB1*1101 = DRB1*1101 (Homo sapiens, UniProt P01903+P01911, A100R/A169T/A87E/I96F/K41T/L162R/M171V/P40S/Q125H/Q178H/Q39Y/Q99D/R42S/S66Y/T262R/V115G/W38E); assay: Peptide-competition assay with biotinylated CLIP peptide (ELISA); assay type: binding; parameters: key: −: no binding/T cell response; +/−: weak binding/T cell response; +: intermediate binding/T cell response; ++: strong binding/T cell response; conditions: DRB1*1101
Description: (§1) The binding affinities to DRB1*0701 and DRB1*1101 were tested by a peptide-competition assay (Reay et al., 1992). Briefly, binding of the biotinylated CLIP peptide (reference peptide) has been used for monitoring of HLA:peptide complex formation. […] In the case of lower affinity peptides they should be added in excess to the reference peptide to compete for occupancy of HLA binding grove. […] Alternatively, comparing of the amount of reference peptide bound to HLA molecules in the presence or absence of competitor peptide one can determine the binding activity of the peptide of interest.
(§2) In the present peptide-competition assay conditions of peptide binding were similar to described above. Soluble HLA molecules were used in the concentration of 0.5 μM and biotinylated CLIP was added to all samples in the final concentration of 2 μM. Competitor peptides were added in three different concentrations: 0.25, 5 and 100 μM. Binding reaction was performed in PBS buffer (pH 7.4) for 18 hours at 37° C. […] Briefly, MaxiSorb 96-well plates (Nunc, Denmark) were coated with mouse anti-αβ antibody L243 (purified from ATCC HB-55) by overnight incubation with 50 μl of 10 μg/ml dilution in PBS at 4° C. Non-specific binding to the plastic was blocked by incubation with T-PBS containing 3% of BSA for 2 hours at 37° C. and binding reactions were then “captured” for 2 hours at room temperature. […] The optical density at 405 nm was measured on a microplate reader SUNRISE (Tecan).

DRB1*0701 = DRB1*0701 (Homo sapiens, UniProt P01903+P01911, A100R/A102G/A103Q/D57E/D86V/E43K/F76Y/K127E/L162R/M171V/P40G/Q125H/Q99D/R33Q/R42Y/R54Q/S133A/S66F/T210M/V115G/Y107V/Y59L/Y89S); assay: as above; assay type: binding; parameters: key: −: no binding/T cell response; +/−: weak binding/T cell response; +: intermediate binding/T cell response; ++: strong binding/T cell response; conditions: DRB1*0701
Description: as §1, §2

[3] = target: T2, soluble DRB1*0404 molecules (Homo sapiens, UniProt P01903+P01911, A100R/A169T/F76Y/I96L/K127E/L162R/M171V/N62H/P40V/Q125Y/R42H/S133A/S149N/S66Y/V209L/W38E); assay: Peptide binding assay, SDS-stability assay; parameters: key: −: no binding/T cell response; +/−: weak binding/T cell response; +: intermediate binding/T cell response; ++: strong binding/T cell response; conditions: soluble DRB1*0404 molecules
T2 construct: Soluble HLA class I A*0201 and HLA class II DRA1*0101/DRB1*0101/Ii, DRA1*0101/DRB1*0401/Ii and DRA1*0101/DRB1*0404/Ii molecules were expressed in SC-2 cells; made in house; host or cells: SC-2 cells

[4] = target: T3, soluble DRB1*0101 molecules (Homo sapiens, UniProt P01903+P01911, A100R/D57E/F55L/F60I/F76Y/I96L/L162R/M171V/P40L/Q125E/R42F/V115G/Y59C); assay: Peptide binding assay, SDS-stability assay; parameters: key: −: no binding/T cell response; +/−: weak binding/T cell response; +: intermediate binding/T cell response; ++: strong binding/T cell response; conditions: soluble DRB1*0101 molecules
T3 construct: Soluble HLA class I A*0201 and HLA class II DRA1*0101/DRB1*0101/Ii, DRA1*0101/DRB1*0401/Ii and DRA1*0101/DRB1*0404/Ii molecules were expressed in SC-2 cells; made in house; host or cells: SC-2 cells

[5] = target: T1, soluble DRB1*0401 molecules (DR4); assay type: binding; parameters: key to Binding to DRB1 *0401: −: no binding/T cell response; +/−: weak binding/T cell response; +: intermediate binding/T cell response; ++: strong binding/T cell response; conditions: soluble DRB1*0401 molecules
[6] = target: T2, soluble DRB1*0404 molecules; assay: Peptide binding assay, SDS-stability assay; parameters: key: +++: high binding affinity; ++: moderate binding affinity; +: low binding affinity; −: no binding; conditions: individual pp65 15mer
[7] = target: T1, soluble DRB1*0401 molecules (DR4); assay type: binding; parameters: key: +++: high binding affinity; ++: moderate binding affinity; +: low binding affinity; −: no binding; conditions: individual pp65 15mer, SDS-stability assay
[8] = target: T3, soluble DRB1*0101 molecules; assay: Peptide binding assay, SDS-stability assay; parameters: key: +++: high binding affinity; ++: moderate binding affinity; +: low binding affinity; −: no binding; conditions: individual pp65 15mer
[9] = tested on: DRB1*0401, DRB1*0101, DRB1*0404, DRB1*0701 and DRB1*1101; assay: Binding to soluble HLA molecules of different allels (promiscuity); parameters: species or system human
Description: In peptide binding reactions HLA molecules were used in a concentration of 0.5 μM, and each single peptide was added in 10-fold molar excess (5 μM) if not mentioned differently. […] The reaction was performed in PBS buffer (pH 7.4) at room temperature for 48 hours in the presence of a protease inhibitor cocktail (Roche) and 0.1% octyl-b-D-glucopyranoside (Sigma).
Peptide binding was evaluated in an SDS-stability assay (Gorga et al., 1987): trimeric HLA class II ab-peptide complexes are resistant to SDS and consequently appear as ˜60 kDa band in SDS-PAGE Western blot analysis. Individual HLA class II α and β chains not stabilized by a peptide binding with intermediate to high affinity migrate as ˜35 kDa and ˜30 kDa bands, respectively.
as §1, §2
Some of the identified DRB1*0401 binding peptides, as well as others chosen by prediction algorithms were also tested for binding to soluble HLA molecules of different allels: DRB1*0101, DRB1*0404, DRB1*0701 and DRB1*1101 (Table 3).

[10] = tested on: PBMC from CMV seropositive donors; assay type: cell-based, human
[11] = tested on: PBMC (CD4 and CD8 positive T-cell compartments); assay: Intracellular IFN-γ staining combined with surface staining for CD4, CD8, CD69 (FACS); assay type: cell-based, human; conditions: donor 10687, peptide 80 μg/ml (FIG. 11)
Description: To distinguish between CD8-positive CTL mediated or CD4-positive HTL mediated reactivity, intracellular cytokine staining combined with staining for surface markers was performed: after thawing, PBMNC were kept overnight (37° C., 5% CO2) in RPMI1640 with 10% human serum type AB (BioWhittaker). Next day aliquots of 2 million PBMNC were incubated with peptide (80 μg/ml) or Concanavalin A (SIGMA). After 1 h, 10 μg/ml brefeldin A (SIGMA) were added and incubation was continued for 5 hours. Surface staining for CD4 (phycoerythrin), CD8 (cychrome), CD69 (allophycocyanine) was done with antibodies labelled as indicated (Pharmingen, San Diego, Calif., USA). After fixation with 1% para-formaldehyde in PBS, cells were permeabilized by incubating for 15 min in 0.5% BSA/0.1% Na-azide/0.1% saponin in PBS. Intracellular cytokines were stained with anti-IFN-γ (FITC) antibody 4S.B3 (Pharmingen). Samples (100,000 events in the lymphocyte gate) were read on a FACScalibur (Becton Dickinson).
FIG. 11: Confirmation of simultaneous CD4+ and CD8+ T-cell responses against CMVpp65 15mers 469, 470 by intracellular IFN-γ staining. PBMC from 2 donors (10687, 10788) were stimulated with either ConA as positive control (1st column), 15mers containing both putative class I and class II epitopes (columns 2 and 3) or medium as negative control (right column). Cells were stained for intracellular IFN-γ (x-axis) or surface the T-cell differentiation markers CD4 or CD8 (y-axis). Percentage in upper-right quadrant is indicated, numbers significant over background are shown boldface.

[12] = IFN-gamma ELISpot, enriched CD4+ fraction of splenocytes of HLA-DR4 transgenic mice vaccinated with the longer peptide, ex vivo re-stimulation
[13] = IFN-gamma ELISpot, total splenocytes of HLA-DR4 transgenic mice vaccinated with the longer peptide, ex vivo re-stimulation

Sequence | Specific CD4+ T cells response described earlier (CD4+ T cells) | Binding to DRB1*0401 [2] | DRB1*0401 mice CD4+ (T cell response) [1, 12] | DRB1*0401 mice total SC (T cell response) [1, 13] | Binding to DRB1 *0401 [5] | Binding to DRB1*0401 [7] | Binding to DRB1*0101 [8] | other results
PQYSEHPTFTSQYRI [Peptide 361] | capable to evoke specific CD4+ T cells response |  |  |  |  |  |  | DRB1*0401 mice CD4+ (T cell response) ([1]; mouse, in vivo): ++; DRB1*0401 mice total SC (T cell response) ([1]; mouse, in vivo, sc): +
NLKYQEFFWDANDIY [Peptide 507] | capable to evoke specific CD4+ T cells response | +/− | + | ++ | +/− |  |  | Binding to DRB1 1101 (DRB1*1101): −; Binding to DRB1 *0701 (DRB1*0701): −; Binding to DRB1*0404 [3]: −; Binding to DRB1*0101 [4]: −
TDEDSDNEIHNPAVF [Peptide 468] |  |  |  |  |  | − |  | Binding to DRB1*0404 [6]: −
IYVYALPLKMLNIPS [Peptide 111] |  |  |  |  |  | − | − | 
EPDVYYTSAFVFPTK [Peptide 177] | capable to evoke specific CD4+ T cells response | + | + | + | + |  |  | Binding to DRB1 1101 (DRB1*1101): +; Binding to DRB1 *0701 (DRB1*0701): −; Binding to DRB1*0404 [3]: −; Affinity for several HLA molecules (promiscuity) [9]: affinity for at least two HLA molecules; Binding to DRB1*0101 [4]: ++
LKYQEFFWDANDIYR [Peptide 508] | capable to evoke specific CD4+ T cells response | +/− | ++ | ++ | +/− |  |  | 
QWKEPDVYYTSAFVF [Peptide 174] |  |  | +/− | +/− | − | − | − | 
KEPDVYYTSAFVFPT [Peptide 176] |  | +/− | + | + | +/− |  | − | 
EPMSIYVYALPLKML [Peptide 107] |  |  |  |  |  | − | − | 
GGAIAGASTSAGRKR [Peptide 423] |  |  |  |  |  | − |  | Binding to DRB1*0404 [6]: −; Induction of IFN-gamma secretion in T cells / PBMC from CMV seropositive donors [10]: can induce functional, IFN-gamma secreting T cells in humans
AGILARNLVPMVATV [Peptide 489] |  |  |  |  |  |  |  | Intracellular IFN-γ in CD4 and CD8 positive T-cell compartments [11]: only CD8 mediated IFN-γ secretion
